Consider 1 protein from publication PMC2790002.

Substrate in the series: CCCC(=O)SCC[N+](C)(C)C
Nature of the series: purified protein. It is filed as biochemical, Homo sapiens. Particulars: 24 °C, 317 pM enzyme, 0.1 mM DTNB, 0.005-3 mM substrate.

B1: human butyrylcholinesterase (Homo sapiens) (protein)
chain: EDDIIIATKNGKVRGMNLTVFGGTVTAFLGIPYAQPPLGRLRFKKPQSLTKWSDIWNATKYANSCCQNIDQSFPGFHGSEMWNPNTDLSEDCLYLNVWIPAPKPKNATVLIWIYGGGFQTGTSSLHVYDGKFLARVERVIVVSMNYRVGALGFLALPGNPEAPGNMGLFDQQLALQWVQKNIAAFGGNPKSVTLFGESAGAASVSLHLLSPGSHSLFTRAILQSGSFNAPWAVTSLYEARNRTLNLAKLTGCSRENETEIIKCLRNKDPQEILLNEAFVVPYGTPLSVNFGPTVDGDFLTDMPDILLELGQFKKTQILVGVNKDEGTAFLVYGAPGFSKDNNSIITRKEFQEGLKIFFPGVSEFGKESILFHYTDWVDDQRPENYREALGDVVGDYNFICPALEFTKKFSEWGNNAFFYYFEHRSSKLPWPEWMGVMHGYEIEFVFGLPLERRDNYTKAEEILSRSIVKRWANFAKYGNPNETQNNSTSWPVFKSTEQKYLTLNTESTRIMTKLRAQQCRFWTSFFPKVLEMTGNIDEAEWEWKAGFHRWNNYMMDWKNQFNDYTSKKESCVGL
For B1, the Km is 100 µM.

In general, Km refers to the substrate concentration at which the rate is half of its maximum.
